Reference: patent US20150175707

Assay: HP-SEC as in Example 20; Fc:Fc self-oligomerization

Row | Substance | % multimeric (HP-SEC) | fraction oligomer (HP-SEC)
1 | IgG2-005-RGY (IgG2-005-E345R/E430G/S440Y) | IgG2-005-RGY (46.1% multimeric) | –
2 | IgG1-2F8-RGY (EGFR antibody 2F8 with E345R/E430G/S440Y) | – | IgG1-2F8-RGY (74.5%)
3 | IgG4-005-RGY | IgG4-005-RGY (84.4% multimeric) | –
4 | IgG3-005-RGY | IgG3-005-RGY (37.8% multimeric) | –
5 | IgG1-7D8-RGY (CD20 antibody 7D8 with E345R/E430G/S440Y) | – | IgG1-7D8-RGY (67.2%)
